From CN108285485A (WULUMUQI HENGKANG ZHIYUAN BIOTECHNOLOGY CO LTD, dated 2018)

B1: His-VHH-B7-c-Myc (VHH)
VHH: QVQLQESGGGSVQAGGSLRLSCVASQYTYNTVGWFRQAPGKEREGVAGIYNGGDQTYYSESAKGRFTISQDNAKRTVYLQMNSLKPEDTAMYYCAAGRLIVSGRWSMTKEEYQYWGQGTQVTVSS
notes: Bactrian camel VHH expressed from pET22b in BL21(DE3); not shown: His tag, named only in the construct name; c-Myc tag, named only in the construct name
B2: His-VHH-H5-c-Myc (VHH)
VHH: QVQLQESGGGSVQAGGSLRLSCAASGSTVRRRCMGWFRQAPGKEREEVAIVDNEGIEQYADFVKGRFTISRDNAKNTLYLQMNSLKPEDTAMYYCAMAPGYTPTGCLVYNTWGQGTQVTVSS
notes: as for B1
B3: His-VHH-H12-c-Myc (VHH)
VHH: QVQLQESGGGSVQAGGSLRLSCAVSGGTTRRRCMGWFRQAPGKEREEVASYDNQGIIKYADFVKGRFTISRDNAKNTLYLQMNTLKPEDTAMYYCAMAPGYDNRGCLVYNTWGQGTQVTVSS
notes: as for B1

Target: PD-1蛋白 (程序性死亡受体-1)
Assay: non-competitive ELISA, PD-1 coated at 2, 1, 0.5 and 0.25 μg/ml, KA=(n-1)/(nAb'-Ab)

Sequence of PD-1蛋白 (程序性死亡受体-1) (chain, as listed by the source): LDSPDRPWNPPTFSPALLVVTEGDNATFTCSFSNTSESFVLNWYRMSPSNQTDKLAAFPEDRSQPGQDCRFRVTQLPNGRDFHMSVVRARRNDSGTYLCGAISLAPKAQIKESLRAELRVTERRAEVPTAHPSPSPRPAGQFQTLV

Row | Ka | Binder
1 | 2.31e+11 M⁻¹ | B1
2 | 2.62e+11 M⁻¹ | B2
3 | 4.79e+11 M⁻¹ | B3
